Source: FireProtDB (doi:10.1002/prot.24420)
Values joined by “and” are separate entries in the source; they are usually repeats but may differ in a detail not shown here. Identical values can stand only once.

B1: D595A|N715A, Q8GRA2 (parent)
chain: MKKTRFPNKLNTLNTQRVLSKNSKRFTVTLVGVFLMIFALVTSMVGAKTVFGLVESSTPNAINPDSSSEYRWYGYESYVRGHPYYKQFRVAHDLRVNLEGSRSYQVYCFNLKKAFPLGSDSSVKKWYKKHDGISTKFEDYAISPRITGDELNQKLRAVMYNGHPQNANGIMEGLEPLNAIRVTQEAVWYYSDNAPISNPDESFKRESESNLVSTSQLSLMRQALKQLIDPNLATKMPKQVPDDFQLSIFESEDKGDKYNKGYQNLLSGGLVPTKPPTPGDPPMPPNQPQTTSVLIRKYAIGDYSKLLEGATLQLTGDNVNSFQARVFSSNDIGERIELSDGTYTLTELNSPAGYSIAEPITFKVEAGKVYTIIDGKQIENPNKEIVEPYSVEAYNDFEEFSVLTTQNYAKFYYAKNKNGSSQVVYCFNADLKSPPDSEDGGKTMTPDFTTGEVKYTHIAGRDLFKYTVKPRDTDPDTFLKHIKKVIEKGYREKGQAIEYSGLTETQLRAATQLAIYYFTDSAELDKDKLKDYHGFGDMNDSTLAVAKILVEYAQDSNPPQLTDLDFFIPNNNKYQSLIGTQWHPEDLVDIIRMEDKKEVIPVTHNLTLRKTVTGLAGDRTKDFHFEIELKNNKQELLSQTVKTDKTNLEFKDGKATINLKHGESLTLQGLPEGYSYLVKETDSEGYKVKVNSQEVANATVSKTGITSDETLAFENNKEPVVPTGVDQKINGYLALIVIAGISLGIWGIHTIRIRKHD

Variants of: B1
Details: Streptococcus pyogenes; pH 7.2; Thermal; CD; Potassium phosphate 50mM; structure 2XIC; whole UniProt chain shown

Row | Variant | unfolding enthalpy (van 't Hoff) | change of melting temperature, mutant - wild type (higher = more stable)
1 | D595A N715A | 62.1 kcal/mol and 71.4 kcal/mol | 
2 | D595A | 108 kcal/mol and 115 kcal/mol | 
3 | C426A | 113 kcal/mol and 123 kcal/mol | -1.7 °C and 0.2 °C
4 | N715A | 147 kcal/mol and 85.9 kcal/mol | 
